Measured values from US9458189B2, “Ligation of stapled polypeptides” (President and Fellows of Harvard College, priority 2008, dated 2016).
Primed or numbered codes have the meaning given here. No end group written: not given here. *: point of attachment. FITC = O=C1OC2(c3ccc(O)cc3Oc3cc(O)ccc32)c2ccc(NC(=S)*)cc21; PEG3′ = not defined here

Assay: Circular dichroism of Max basic region peptides
Type: physicochemical
Details: circular dichroism wavelength scans; 100 uM peptide in water
Procedure: Each of the synthesized peptides were purified by HPLC and biochemically characterized. Each peptide was diluted in water to a final concentration of 100 uM using the extinction coefficient of FITC at 495 nm in 50 mM NaH2PO4, pH 8.0. […] One peptide, i, i+4 version 1, was chosen to be synthesized so as to contain a C-terminal thioester. The peptide was synthesized using t-Boc chemistry on 3-S-trityl-mercaptopropionyl resin. The peptide was purified by HPLC and the desired product was confirmed by LC/MS analysis.

unmodified basic region peptide: unmodified DNA binding basic region of Max (RAHHNALERKRR, SEQ ID NO: 2) with N-terminal PEG-3 linker and FITC ({FITC-PEG3′}-RAHHNALERKRR)
CD profile (secondary structure in solution): disordered in solution
